Experimental data: publication PMC5437177

Target: T1, ABI5 (Arabidopsis thaliana) (UniProt Q9SJN0)
T1 sequence: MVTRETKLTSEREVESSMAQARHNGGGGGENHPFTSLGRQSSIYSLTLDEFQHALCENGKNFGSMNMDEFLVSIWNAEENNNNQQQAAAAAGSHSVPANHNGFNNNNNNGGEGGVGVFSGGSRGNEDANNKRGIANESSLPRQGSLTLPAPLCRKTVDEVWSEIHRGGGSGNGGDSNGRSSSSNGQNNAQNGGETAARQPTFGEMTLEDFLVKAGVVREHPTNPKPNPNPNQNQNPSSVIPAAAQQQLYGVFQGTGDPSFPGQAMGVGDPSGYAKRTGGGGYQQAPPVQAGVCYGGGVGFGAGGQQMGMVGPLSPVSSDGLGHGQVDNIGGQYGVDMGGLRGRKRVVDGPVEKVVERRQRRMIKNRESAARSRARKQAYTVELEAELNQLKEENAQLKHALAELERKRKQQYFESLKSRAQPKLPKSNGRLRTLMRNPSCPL
Assay: EMSA
Conditions: 25 mM HEPES pH 8.0, 40 mM KCl, 5 mM MgCl2, 1 mM DTT, 1 mM EDTA, 8% glycerol, 1 ug/uL poly(dI-dC), 30 min room temperature; 5% native PAGE at 4 C

Question: “TCCTGAAATGGATCAACAATTGTCTAATTATGGTATAGTATCTGGCGAAATCAAAGACGATATCATCCACTTTTAATTAGTTTGACTATTAATACGAGGATTATCATTTGGATAAGGATTAACAAAGACAAAACACATACGTGTTTTGGTGTTGAGCTAAAATAAGATATTTTGGCTCTCGCTATAAA (double strand) [pCAT1 box1 mutation probe]” was tested. Which binding did it give?
Answer: binds more weakly

Question: How did the binding turn out when “TCCTGAAATGGATCAACAATTGTCTAATTATGGTATAGTATCTGGCGAAATCAAAGACGATATCATCCACACGTAATTAGTTTGACTATTAATACGAGGATTATCATTTGGATAAGGATTAACAAAGACAAAACACATTTTTGTTTTGGTGTTGAGCTAAAATAAGATATTTTGGCTCTCGCTATAAA (double strand) [pCAT1 box2 mutation probe]” was run?
Answer: binds more weakly

Question: With “TCCTGAAATGGATCAACAATTGTCTAATTATGGTATAGTATCTGGCGAAATCAAAGACGATATCATCCACACGTAATTAGTTTGACTATTAATACGAGGATTATCATTTGGATAAGGATTAACAAAGACAAAACACATACGTGTTTTGGTGTTGAGCTAAAATAAGATATTTTGGCTCTCGCTATAAA (double strand) [pCAT1 wild type probe (-296/-108)]” as the sequence, how does the binding read?
Answer: binds
